No end group written: not given here. Cy3 = Cy3 fluorescent dye label
Tests used:
TRAM-Cer = target: T1, TRAM-Cer (UniProt Q86XR7 1-235); test: FRET-FLIM in HeLa cells expressing the Cer fusion, Cy3-peptide 1 h
T1 construct: Control construct expressed in HeLa cells; not shown: Cerulean fluorescent protein (Cer)
Method: (§1) To identify potential binding partners of inhibitory peptides a FRET approach coupled with Fluorescence Lifetime Imaging Microscopy (FLIM) was used. HeLa cells were transiently transfected with an expression vector that encodes a TIR domain fused with Cerulean fluorescent protein (Cer). Cells were treated with various concentrations of a Cy3-labeled inhibitory peptide 48 hours after transfection. Cy3 is a suitable FRET acceptor for Cer fluorescence. A direct molecular interaction of a Cy3-labeled peptide with Cer-fused TIR domain should quench Cer fluorescence, leading to a decreased fluorescence lifetime.
(§2) A progressive shift of average fluorescence lifetime towards lower values observed with increasing peptide concentrations indicates the binding between donor and acceptor moieties. […] FRET efficiencies presented in FIG. 13 were calculated from the average lifetimes corresponding to entire images that contained multiple cells as in images shown in FIG. 11, using data obtained in three independent experiments. […]
(§3) The strongest peptide-induced quenching was detected for the TLR9 TIR-Cer-expressing cells treated with Cy3-9R34-ΔN. This peptide quenched the TLR9 TIR-Cer fluorescence dose-dependently with FRET efficiency varying in the range of 9-23% (FIG. 13). […]

MyD88-Cer = target: T2, MyD88-Cer (UniProt Q99836 155-296); test: as above
T2 construct: The vector is 'described previously'; Expressed in HeLa cells; also called MyD88 TIR-Cer; Cer-labeled MyD88 TIR; not shown: Cerulean fluorescent protein (Cer)
Method: as §1, §2, §3

T1 sequence (Q86XR7 whole entry, the tested form may be a part): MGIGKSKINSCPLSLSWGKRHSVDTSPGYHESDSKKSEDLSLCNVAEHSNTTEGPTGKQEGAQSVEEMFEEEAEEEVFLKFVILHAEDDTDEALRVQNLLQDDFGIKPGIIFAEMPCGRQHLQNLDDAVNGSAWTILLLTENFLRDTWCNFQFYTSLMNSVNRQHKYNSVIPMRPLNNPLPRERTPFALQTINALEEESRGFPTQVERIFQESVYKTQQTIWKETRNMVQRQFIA
T2 sequence (Q99836 155-296): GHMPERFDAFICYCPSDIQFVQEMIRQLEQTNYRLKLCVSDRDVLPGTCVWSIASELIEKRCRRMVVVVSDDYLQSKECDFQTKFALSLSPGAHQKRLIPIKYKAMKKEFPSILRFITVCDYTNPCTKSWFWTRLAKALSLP

binding result (TRAM-Cer): no binding (tested: 40 µM) | binding result (MyD88-Cer): no binding (tested: 2.5 and 10 µM)
B1: Cy3-9R34-ΔN (peptide)
peptide: Cy3-RQIKIWFQNRRMKWKKALRLCLEERD
notes: Cy3-labeled cell-permeating decoy peptide (CPDP); also called 9R34-ΔNa; peptide from Surface 1 (S1) of TLR9

From patent US20210087231A1 (UNIVERSITY OF MARYLAND BALTIMORE, published 2021)
